Laboratory results from patent publication US20240400717A1, “Antibody Binding to CHI3L1 for Treating Cancer” (National Cheng Kung University, priority 2021, published 2024).

What was measured:
hCHI3L1/flag-His = target: T1, hCHI3L1/flag-His (Homo sapiens, UniProt P36222); experiment: In tandem epitope binning on Octet Red96; type: binding
T1 construct: human CHI3L1 extracellular domain fused with flag and His tag
Experimental: In order to know the epitopic coverage for those four antibodies to increase the success of therapeutic CHI3L1 antibody development, epitope binning is used to characterize the binding site of mAbs to the corresponding antigen and summarized in the Table 4. In epitope binning, mAbs specific to the same target protein are tested pairwise against all mAbs in a set to assess whether they block one another's binding to a specific site of the antigen or not. The mAbs that block binding to the same epitope are “binned” together. mAbs within the same bin often function similarly, so epitope bins can narrow down the choices to fewer candidates for investigators to choose from. The in tandem epitope binning assay conducted on Octet Red96 comprised a five-step binding cycle; 1) a buffer baseline was established for 30 sec, 2) 100 nM hCHI3L1/flag-His was captured for 5 min, 3) 100 nM mAb array was loaded to saturate the captured antigen for 10 min, 4) 100 nM of the test mAb was bound for 5 min, and 5) the capture surfaces were regenerated for 30 sec. Anti-His surfaces were regenerated with 10 mM glycine pH 1.7. Raw data was processed using ForteBio's Data Analysis HT Software 11.1 and the antibody pairs were assessed for competitive binding. Additional binding by the second antibody indicates an unoccupied epitope (non-competitor, marked as *c in Table 4), while no binding indicates epitope blocking (competitor, marked as *b in Table 4) and self-competing antibodies were marked as *a in Table 4. Among four anti-CHI3L1 mAbs, there are two epitope clusters.

SW480 and SW620 cells = experiment: rCHI3L1-induced foci formation; type: cell-based, human
[1] = tested on: MiaPaCa-2, SW480 and A549 cells; experiment: Wound healing assay with rCHI3L1; type: cell-based, human; settings: MiaPaCa-2, SW480, A549; 16 hours
Experimental: Since AKT regulates cell migration, we further performed wound healing assay to examine the anti-migratory effect of mAbs on pancreatic (MiaPaCa-2), colorectal (SW480), and lung (A549) cells. We observed that after 16 hours, the wound closure area was increased compared to that in control groups upon rCHI3L1 treatment. […] Taken together, our fully human monoclonal CHI3L1 neutralizing antibody clones R4-4, R4-54, 293R3-2, and 293R3-4 blocked the CHI3L1 induced signaling and cell behaviors of tumor cells. The data was presented as mean±S.D. (n=3 per group). P values were determined by one-way ANOVA. * P<0.05, ** P<0.01, *** P<0.001, **** P<0.0001.

PANC1 cells = experiment: Immunoblot of rCHI3L1-induced AKT and ERK phosphorylation, PANC1; type: cell-based, human; settings: PANC1, rCHI3L1 100 ng/ml, 20 minutes, different dose of mAbs
Experimental: The involvement of CHI3L1 in intracellular signaling pathways has been reported. For example, CHI3L1 binding to CD44 activates protein kinase B (AKT) and extracellular signal-regulated kinase (ERK) signaling to promote cancer progression (Chen, Jiang et al. 2021). Thus, we tested whether mAb clones R4-4, R4-54, 293R3-2, and 293R3-4 could attenuate AKT and ERK phosphorylation in human pancreatic (PANC1), colorectal (HCT116), and lung (A549) cancer cell lines. PANC1 cells were treated with rCHI3L1 (100 ng/ml) only or rCHI3L1 with different dose of mAbs as indicated for 20 minutes.

CHI3L2 = target: T2, CHI3L2 (Homo sapiens, UniProt Q15782); experiment: ELISA binding specificity, CHI3L2; settings: mAbs 1 μg/ml; coated protein 2.5 μg/ml to 0 μg/ml
T2 sequence (Q15782 27-390): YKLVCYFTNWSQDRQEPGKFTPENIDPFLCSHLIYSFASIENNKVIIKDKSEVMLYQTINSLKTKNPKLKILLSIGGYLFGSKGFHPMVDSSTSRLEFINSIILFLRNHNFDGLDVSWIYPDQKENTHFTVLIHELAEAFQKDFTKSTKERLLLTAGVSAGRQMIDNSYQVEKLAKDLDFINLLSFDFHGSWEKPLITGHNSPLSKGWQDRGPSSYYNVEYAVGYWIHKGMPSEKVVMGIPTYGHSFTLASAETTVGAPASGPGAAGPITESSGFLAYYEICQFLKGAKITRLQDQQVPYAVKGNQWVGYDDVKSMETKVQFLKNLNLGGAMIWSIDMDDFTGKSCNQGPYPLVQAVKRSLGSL
Experimental: (§1) Four selected clones of mAbs including R4-4, R4-54, 293R3-2, and 293R3-4 were further tested for blocking effect on human colorectal (HCT116, SW480, and SW620) and pancreatic cancer cell lines (PANC1 and MiaPaCa-2). […] P values were determined by one-way ANOVA. * P<0.05, ** P<0.01, *** P<0.001, **** P<0.0001. For binding specificity examination, we further coated different concentration of recombinant CHI3L1 protein, and two other major proteins in chitinase family including human chitotriosidase-1 (CHIT1) and CHI3L2 from 2.5 μg/ml to 0 μg/ml, on 96-well plate.

MiaPaCa cells = experiment: MiaPaCa orthotopic NOD-SCID mice model
Experimental: Specifically, experimental design of tumor growth inhibition in vivo. MiaPaCa cells (5×10^6) were injected into pancreas of NOD-SCID mice at Day 0. […] Mice were sacrificed on day 34. […] Since fibrosis and angiogenesis are two major issues during tumor progression, we compared the fibrosis and angiogenesis level within each groups.

[2] = target: CHI3L1-receptor(s) interaction on HCT116, SW480, SW620, PANC1 and MiaPaCa-2 (Homo sapiens, UniProt P36222); experiment: Flow cytometry blockage of rCHI3L1-receptor(s) interaction, colorectal and pancreatic cancer cell lines; type: cell-based; settings: HCT116, SW480, SW620, PANC1, MiaPaCa-2, flow cytometry
Experimental: CHI3L1 have been reported to interact with several receptors on cancer cells, and trigger downstream signaling for cancer cell growth, proliferation and anti-apoptosis (Kamba et al. 2013; Lee et al. 2016). […] His-tagged rCHI3L1 was added for CHI3L1-receptor(s) interaction. Anti-His antibody AHAb with fluorescent F recognized CHI3L1-receptor(s) R complex for detection (left, FIG. 4A). Once fully human mAbs (nCHI3L1 Ab) blocked the CHI3L1-receptor(s) interaction, the fluorescent F signals were decreased (right, FIG. 4A) and cell signaling CS was blockade.
as §1

[3] = target: human chitotriosidase-1 (CHIT1) (Homo sapiens, UniProt Q13231); experiment: ELISA binding specificity, CHIT1; settings: mAbs 1 μg/ml; coated protein 2.5 μg/ml to 0 μg/ml
Experimental: as §1

T1 sequence (P36222 22-383): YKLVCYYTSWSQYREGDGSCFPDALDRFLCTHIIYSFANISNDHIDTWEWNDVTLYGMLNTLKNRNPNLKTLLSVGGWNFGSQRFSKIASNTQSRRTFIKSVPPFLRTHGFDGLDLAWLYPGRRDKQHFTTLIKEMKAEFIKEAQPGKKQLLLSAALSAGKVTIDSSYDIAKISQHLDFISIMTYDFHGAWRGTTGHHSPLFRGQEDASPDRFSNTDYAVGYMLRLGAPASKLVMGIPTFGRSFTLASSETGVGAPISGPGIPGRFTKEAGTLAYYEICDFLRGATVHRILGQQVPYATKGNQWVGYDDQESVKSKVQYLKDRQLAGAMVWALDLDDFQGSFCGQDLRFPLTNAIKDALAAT
Chain of CHI3L1-receptor(s) interaction on HCT116, SW480, SW620, PANC1 and MiaPaCa-2 (P36222 22-383): as above
Chain of human chitotriosidase-1 (CHIT1) (Q13231 22-466): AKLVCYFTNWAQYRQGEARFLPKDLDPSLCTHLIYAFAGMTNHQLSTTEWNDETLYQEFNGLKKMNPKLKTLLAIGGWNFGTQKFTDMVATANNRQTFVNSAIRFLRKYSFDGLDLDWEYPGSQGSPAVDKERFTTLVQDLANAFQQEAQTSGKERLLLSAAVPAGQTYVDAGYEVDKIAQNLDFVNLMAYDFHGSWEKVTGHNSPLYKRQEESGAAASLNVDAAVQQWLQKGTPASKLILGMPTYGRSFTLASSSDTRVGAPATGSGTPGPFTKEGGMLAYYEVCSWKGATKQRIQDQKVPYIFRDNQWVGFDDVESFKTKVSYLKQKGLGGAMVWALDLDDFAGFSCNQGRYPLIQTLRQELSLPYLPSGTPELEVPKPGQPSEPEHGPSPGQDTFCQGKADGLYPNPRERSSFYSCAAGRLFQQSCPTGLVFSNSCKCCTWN

B1: R4-4: fully human anti-CHI3L1 IgG1 mAb, Table 1 No. 9; heavy chain SEQ ID NO: 9, light chain SEQ ID NO: 10 (antibody, listed as Homo sapiens)
VH: EVQLLESGGGLLQPGGSLRLSCAASGLTFRNYAMTWVRQAPGKGLEWVSTISGNGDETFYADSVKGHFTISRDNSKDTVYLQMNSLRAEDTAVYYCAKGGHYSFFDSWGQGSPVTVSS
light: NFMLTQPHSVSESPGKTVTISCTRSSGSIASNYVQWYQQRPGSSPTTVIYEDNQRPSGVPDRFSGSIDSSSNSASLTISGLKTEDEADYYCQSYDSSNYVFGTGTKVTVLGQPKANPTVTLFPPSSEELQANKATLVCLISDFYPGAVTVAWKADGSPVKAGVETTKPSKQSNNKYAASSYLSLTPEQWKSHRSYSCQVTHEGSTVEKTVAPAECS
epitope cluster (hCHI3L1/flag-His; among four anti-CHI3L1 mAbs): exclusive epitope
competitive binding class, CHI3L1 293R3-2 (hCHI3L1/flag-His; paired with CHI3L1 293R3-2): *^c
Epitope Binning Heat Map value, CHI3L1 293R3-2 (hCHI3L1/flag-His; paired with CHI3L1 293R3-2, 100 nM each): 0.5680
competitive binding class, CHI3L1 293R3-4 (hCHI3L1/flag-His; paired with CHI3L1 293R3-4): *^c
competitive binding class, CHI3L1 R4-4 (hCHI3L1/flag-His; paired with CHI3L1 R4-4): *^a
Epitope Binning Heat Map value, CHI3L1 R4-4 (hCHI3L1/flag-His; paired with CHI3L1 R4-4, 100 nM each): 0.1232
competitive binding class, CHI3L1 R4-54 (hCHI3L1/flag-His; paired with CHI3L1 R4-54): *^c
Epitope Binning Heat Map value, CHI3L1 R4-54 (hCHI3L1/flag-His; paired with CHI3L1 R4-54, 100 nM each): 1.3845
number of foci (SW480 and SW620 cells): decreased in a dose-dependent manner
cell migration ability induced by rCHI3L1 (wound closure area) [1]: significantly reduced cell migration ability
p-AKT and p-ERK levels induced by rCHI3L1 (PANC1 cells): inhibited p-AKT and p-ERK levels induced by rCHI3L1 in a dose dependent manner
binding specificity: recognition of CHI3L2 (CHI3L2): no other chitinase proteins
spleen metastasis tumor nodules (MiaPaCa cells; 5 mg/kg i.v.): tumor nodules were obviously smaller
fibrosis indicated by α-SMA (MiaPaCa cells; comparing to IgG control and gemcitabine groups): obviously decrease
level of CHI3L1 in intratumoral region and plasma (MiaPaCa cells; end of experiment): lower than IgG control group
infiltrated macrophages in tumor sections (F4/80+, CD206+) (MiaPaCa cells; immunofluorescence, 5 mg/kg i.v.): more macrophages other than M2 phenotype
angiogenesis indicated by CD31 expression (MiaPaCa cells; mAb 5 mg/kg i.v., gemcitabine 50 mg/kg i.p.): decreased in every treatment groups
tumor size (MiaPaCa cells; mAb 5 mg/kg i.v., gemcitabine 50 mg/kg i.p., Day 7, 14, 21, 28, sacrificed day 34): smaller than IgG control group
rCHI3L1 binding to cells [2]: significantly reduced
binding specificity: recognition of CHIT1 [3]: no other chitinase proteins
